Experimental data from patent publication US20200385445A1 (COMPUGEN, published 2020).

Legend:
[1] = target: T1, human PVRIG (Poliovirus Receptor Related Immunoglobulin Domain Containing Protein), full length on cells (human, UniProt Q6DKI7 41-326); assay: FACS dose titration on PVRIG over-expressing HEK293 cells
T1 construct: whole, on cells; Over-expressed on HEK293 (some pools flag-tagged) or endogenous on Jurkat, CA46, T cells, NK cells, TILs; also called hPVRIG; HEK hPVRIG
T1 sequence (looked up): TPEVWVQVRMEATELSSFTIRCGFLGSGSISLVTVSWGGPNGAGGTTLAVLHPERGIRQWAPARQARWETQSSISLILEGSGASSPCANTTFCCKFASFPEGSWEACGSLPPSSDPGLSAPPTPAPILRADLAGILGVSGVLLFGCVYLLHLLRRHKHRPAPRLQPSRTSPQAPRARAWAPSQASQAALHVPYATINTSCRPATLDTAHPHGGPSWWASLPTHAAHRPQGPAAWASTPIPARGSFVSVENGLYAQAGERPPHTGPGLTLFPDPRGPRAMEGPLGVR
Method: FACS screening of the reformatted antibodies was done similarly to the PPE based screen described herein, except that a dose-dependent titration of the purified antibodies was performed. The human PVRIG over-expressing HEK293 cells, or the un-transfected HEK293 cells, were incubated with varying concentrations (0-10 μg/ml) of the anti PVRIG antibodies or isotype controls in FACS buffer at 4° C. for 60 mins. […] Cells were washed twice and re-suspended in a final volume of 80 μl of FACS buffer and Propidium Iodide (Biolegend cat #421301) diluted 1:1000. Samples were analyzed using an Intellicyt HTFC screening system (Intellicyt). Data was analyzed using FlowJo (DeNovo), exported to Excel (Microsoft) and plotted in GraphPad Prism (GraphPad Software, Inc.).
All unique ELISA and FACS binders were reformatted for expression as human IgG1 molecules in Expi293 cells. […] These reformatted antibodies were tested for retained binding to PVRIG over-expressing HEK293 cells alongside an irrelevant human IgG1 isotype control. All antibodies were also tested against un-transfected HEK293 cells.

[2] = target: T2, L95R/T97I cyno PVRIG ECD with C-terminal 6xHis tag (cynomolgus monkey); assay: ELISA on coated His-tagged PVRIG variant
T2 chain: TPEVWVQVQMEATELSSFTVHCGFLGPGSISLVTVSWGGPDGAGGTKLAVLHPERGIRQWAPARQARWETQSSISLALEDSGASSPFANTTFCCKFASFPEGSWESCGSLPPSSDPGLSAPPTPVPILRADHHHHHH

B1: CPA.7.021 human IgG1 (antibody, V domains shown)
VH: EVQLVESGGGVVKPGGSLRLSCAASGFTFGTSSMNWVRQAPGKGLEWVAVISFDGTEIHYADSVKGRFTISRDNSKSTVFLQMNSLRPDDTALYYCAKGSGNIYFYSGMDVWGQGTTVTVSS
VL: DIQMTQSPSTLSASVGDRVTITCRAGQSISGWLAWFQQKPGKAPNLLIYETSTLESGVPSRFSGSGSGTEYTLTISSLQPDDFATYYCQQYYSYPLTFGQGTKVEIKR
[1]
  Kd: 11.2 nM
[2]
  binding result: binds
